The results in this text go back to patent US20220356266A1.

This assay addresses soluble full length KLK2 protein (human kallikrein-2 6-His protein) (human) (UniProt P20151). Kind of assay: SPR; antibody captured on a chip coated with anti-Fc antibody, soluble hK2 injected, 1:1 Langmuir fit.

B1: KL2B30 Fab (KLCB80) (Fab, V domains shown)
VH: QVQLQESGPGLVKPSETLSLTCTVSGGSISSYYWSWIRQPPGKGLEWIGYIYYSGSTNYNPSLKSRVTISVDTSKNQFSLKLSSVTAADTAVYYCAGTTIFGVVTPNFYYGMDVWGQGTTVTVSS
VL: DIQMTQSPSFLSASVGDRVTITCRASQGISSYLAWYQQKPGKAPKFLIYAASTLQSGVPSRFSGSGSGTEFTLTISSLQPEDFATYYCQQLNSYPLTFGGGTKVEIKR
The term Kd denotes the free concentration of one partner at which half of the binding sites on the other are occupied at equilibrium, for simple one-to-one binding. On to B1, for which the Kd is 0.46 nM.
